Results from patent publication US20200277374A1 (Alector, published 2020).

Experiments:
[1] = biological target: T1, human Siglec-7 expressed on human cells (primary monocytes, dendritic cells, macrophages, NK cells, … (human, UniProt Q9Y286 19-467)); experiment: cell-based or functional assay
[2] = biological target: T1, human Siglec-7 expressed on human cells …; experiment: FACS, human primary macrophages, 10 ug/ml mAb
[3] = biological target: T2, Siglec-7-Fc (plate immobilized) (human, UniProt Q9Y286 19-357, limits assumed); experiment: RBC solid adhesion assay, plate-coated Siglec-7-Fc, antibody 0.5 or 1.0 ug/ml; % of RBC binding without antibody
T2 construct: also called Siglec-7-Fc protein; immobilized Siglec-7; not shown: Fc part
In short: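 Plates coated overnight at RT with 5 μg/ml Siglec-7-Fc and blocked in PBS with BSA and 1 mM CaCl₂. Antibody (0.5 or 1.0 μg/ml) bound 1 h at RT, then RBCs (3.0×10⁶ cells/ml) added for 1 h at RT. Bound RBCs lysed and detected by peroxidase at 450 nm, expressed as % of binding without antibody.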

[4] = biological target: T1, human Siglec-7 expressed on human cells …; experiment: FACS titration on primary human dendritic cells, donor 358, 4 C
Method: Two Siglec-7 antibodies, 4E3 and 10B5, were titrated 2-fold for a 12-point curve with a concentration range of 6.67-0.00325 nM to assess binding and calculate half-maximal concentration (EC₅₀) for binding to primary human dendritic cells (FIG. 5B). Antibodies were serially diluted and incubated with cells in PBS with 1% BSA, 1 mM EDTA for 1 hour on ice (4° C.). Cells were pelleted and resuspended with goat anti-mouse secondary antibody conjugated with APC (BD Biosciences) at a 1:200 dilution in buffer. Secondary detection antibody was incubated for 30 minutes on ice (4° C.), then cells were washed 3 times in buffer before analyzing on a BD FACS Canto for APC MR. Data were analyzed with FlowJo Software (TreeStar).

[5] = biological target: T3, Histidine-tagged human Siglec-7 (NovoProtein) (human, UniProt Q9Y286 19-357, limits assumed); experiment: SPR (BiaCore T200, 25 C), antibody captured on anti-mouse IgG, Siglec-7-His 100 nM, single-concentration kinetics
T3 construct: Bought protein; also called purified Siglec-7-his tagged protein; not shown: histidine tag
Method: SPR data was collected at a rate of 10 Hz at 25′ C on a BiaCore T200 instrument. Data analysis was performed using BiaCore T200 Evaluation Software, version 2.0. HBS-EP+ (100 mM HEPES, 1.5 M NaCl, 30 mM EDTA, 0.5% v/v Surfactant P20, pH 7.4) was used as running buffer and for preparing reagents.
Mouse-derived antibodies (25 nM) against Siglec-7 were captured (60 s contact time, 30 μL/min flow rate, 0 s stabilization time) on a CM5 sensor chip (GE Healthcare) immobilized with anti-mouse IgG. Histidine-tagged human Siglec-7 (NovoProtein) was then flowed over the captured anti-Siglec-7 surface (120 s contact time, 30 μL/min flow rate, 300 s dissociation time). Concentration of antigen ranged from 5 nM to 100 nM, depending on information obtained from an initial screen. Duplicate single-concentration trials were performed and bracketed by a blank (0 nM antigen) sample. The chip surface was regenerated in between cycles using 10 mM glycine-HCl, pH1.7 (60 s contact time, 30 μL/min flow rate, 60 s stabilization time). The resulting SPR signal was obtained as the difference in response from measurements performed on a blank flow cell.
Affinity constants (KD) were calculated from the ratio kd/kₐ. For one antibody (clone 1E8), we validated the single-concentration analysis with a multiple-concentration approach (five concentrations of antigen used, plus one blank).

[6] = biological target: T1, human Siglec-7 expressed on human cells …; experiment: FACS, human primary dendritic cells, 10 ug/ml mAb
[7] = biological target: T1, human Siglec-7 expressed on human cells …; experiment: FACS, human primary monocytes, 10 ug/ml mAb

T1 sequence (Q9Y286 19-467): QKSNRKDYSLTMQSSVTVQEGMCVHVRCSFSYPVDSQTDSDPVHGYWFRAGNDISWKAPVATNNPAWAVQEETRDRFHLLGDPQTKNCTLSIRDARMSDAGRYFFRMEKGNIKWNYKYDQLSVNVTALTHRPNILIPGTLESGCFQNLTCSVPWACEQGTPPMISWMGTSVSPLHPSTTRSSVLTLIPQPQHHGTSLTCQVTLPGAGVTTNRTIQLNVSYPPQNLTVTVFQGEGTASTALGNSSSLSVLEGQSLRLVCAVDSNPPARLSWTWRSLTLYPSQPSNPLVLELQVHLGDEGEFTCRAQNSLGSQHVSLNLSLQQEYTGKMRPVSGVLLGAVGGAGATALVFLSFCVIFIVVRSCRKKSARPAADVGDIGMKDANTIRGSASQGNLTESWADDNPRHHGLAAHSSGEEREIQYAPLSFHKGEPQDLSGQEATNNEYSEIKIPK
T2 sequence (Q9Y286 19-357 limits assumed): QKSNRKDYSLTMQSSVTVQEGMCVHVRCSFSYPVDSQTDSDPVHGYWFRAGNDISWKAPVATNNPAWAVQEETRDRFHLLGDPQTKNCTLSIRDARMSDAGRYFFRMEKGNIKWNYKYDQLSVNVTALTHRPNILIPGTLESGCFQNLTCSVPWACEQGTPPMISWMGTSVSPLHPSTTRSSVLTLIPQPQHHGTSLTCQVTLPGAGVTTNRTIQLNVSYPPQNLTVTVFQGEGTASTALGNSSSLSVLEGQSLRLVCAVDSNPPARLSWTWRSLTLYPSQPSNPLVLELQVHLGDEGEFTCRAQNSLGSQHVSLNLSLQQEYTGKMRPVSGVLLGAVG
T3 sequence (Q9Y286 19-357 limits assumed): as above

EC50 of Siglec-7 cell surface downregulation, primary human dendritic cells, donor 362 [1]: 0.144 nM | EC50 of Siglec-7 cell surface downregulation, primary human dendritic cells, donor 363 [1]: 0.35 nM | EC50 of Siglec-7 cell surface downregulation, primary human dendritic cells, donor 364 [1]: 0.103 nM | EC50 of Siglec-7 cell surface downregulation, primary human dendritic cells, donor 365 [1]: 0.0713 nM | % Positive [2]: 99.7% | MFI [2]: 6030 | Percent RBC Binding to Siglec-7 [3]: 88.4% | EC50 [4]: 1.43 nM | Kd [5]: 3 nM | % Positive [6]: 99.6% | MFI [6]: 3230 | % Positive [7]: 99.2% | MFI [7]: 417
B1: anti-Siglec-7 antibody 10B5 (antibody, V domains shown)
VH: QVHLQQSGPELVKPGASVKISCKASGYAFTNCWMNWVRQRPGKGLDWIGRIFPGNGHTNYSGKFKDKATLTEDKSSSTAYMQLSSLTSEDSAVYFCARDYSDYYFDYWGQGTTLTVSS
VL: DVQMTQTTSSLSASLGDRVTISCRASQDINTYLNWYQQKPDGTVKLLIYYTSRLHSGVPSRFSGSGSGTDYSLTISNLEQEDIATYFCQQGNTLPWTFGGGTKLEIK
notes: that light chain holds several Z and differs in its CDRs from S7-10B5.1 / 10B5L1; also called S7-10B5; mAb S7-10B5
